Drawing on US7462691, this text covers Kd and kon for 1 substance.

The test has as its target recombinant secreted soluble PSCA with C-terminal 6XHis and MYC tag (human). In words: SPR (BIAcore), recombinant PSCA immobilised at low density (30 RU), mAb in solution.

recombinant secreted soluble PSCA with C-terminal 6XHis and MYC tag (human), sequence (chain, as listed by the source): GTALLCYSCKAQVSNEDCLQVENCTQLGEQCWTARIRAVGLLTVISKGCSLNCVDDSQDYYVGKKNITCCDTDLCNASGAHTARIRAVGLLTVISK

With anti-PSCA monoclonal antibody 1G8, the Kd came out at 1 nM and the kon was 168000 M⁻¹ s⁻¹.
